Experimental data as given in patent US20220348681A1, “FUSED PROTEIN OF AN ANTIBODY WHICH RECOGNIZES CANCER-CELLS AND A STREPTAVIDIN MUTANT” (THE UNIVERSITY OF TOKYO, priority 2021, published 2022).

Experiment: Interaction analysis between CEA-V2122-del5 and modified biotin using Biacore T200 (single-cycle kinetics, bivalent analysis mode)
Assay type: binding
Settings: analyte Psyche J-iodine
Method: The interaction between CEA-V2122-del5 and a modified biotin was analyzed using Biacore T200. The Psyche J-iodine described in Production Example 1 was used herein as a modified biotin.
The analysis method was specifically as follows. That is, an amine-coupling kit was used, a target value was set to be 3000 RU, and the purified CEA-V2122-del5 was immobilized on Sensor Chip CM5. With regard to the concentrations of the analytes, 2.5E−09 M was two-fold diluted, and 5 types of two-fold serial dilutions including 2.5E-09 M were prepared and used in the measurement. Regarding interaction analysis, data were obtained by single-cycle kinetics analysis. Using Biacore T200 Evaluation Software, version 2.0, the obtained data were subjected to curve fitting in a bivalent analysis mode, and the following values were obtained: ka1=6.3E+03, and kd1=8.0E−06.

[1] = CEA-V2122-del5 immobilized on Sensor Chip CM5, 5 two-fold serial dilutions from 2.5E-09 M, curve fitting in bivalent analysis mode

KD=kd1/ka1 (evaluation value from the bivalent analysis): 1.3E−09
B1: CEA-V2122-del5: fusion of scFv-type anti-CEACAM5 antibody and mutant streptavidin V2122 lacking 11 C-terminal amino acids including 6xHis tag (SEQ ID NO: 18) (protein)
chain: MKYLLPTAAAGLLLLAAQPAMAQVKLEQSGAEVVKPGASVKLSCKASGFNIKDSYMHWLRQGPGQRLEWIGWIDPENGDTEYAPKFQGKATFTTDTSANTAYLGLSSLRPEDTAVYYCNEGTPTGPYYFDYWGQGTLVTVSSGGGGSGGGGSGGGGSENVLTQSPSSMSVSVGDRVNIACSASSSVPYMHWLQQKPGKSPKLLIYLTSNLASGVPSRFSGSGSGTDYSLTISSVQPEDAATYYCQQRSSYPLTFGGGTKLEIKGGGGSGGGGAEAGITGTWSDQLGDTFIVTAGADGALTGTYENAVGGAESRYVLTGRYDSAPATDGSGTALGWTVAWKNNSKNAHSATTWSGQYVGGADAKINTQWLLTSGTTNANAWKSTLVGHDTFTKVK
ka1 [1]: 6.3E+03 | kd1 [1]: 8.0E−06
